What all share (test): filter binding
Data set [1] concerns the target T1, Py-DmBLM (Drosophila Bloom's syndrome helicase) (Drosophila, UniProt Q9VGI8 1-1487).
In data set [2] the target is T1, Py-DmBLM (Drosophila Bloom's syndrome …). The source holds these as a separate data set.
Data set [3] has the same target. The source holds these as a separate data set.

The results in this text go back to article PMC1849897.

Where two headings read alike, the source gives them in different places.

T1 sequence (Q9VGI8 whole entry): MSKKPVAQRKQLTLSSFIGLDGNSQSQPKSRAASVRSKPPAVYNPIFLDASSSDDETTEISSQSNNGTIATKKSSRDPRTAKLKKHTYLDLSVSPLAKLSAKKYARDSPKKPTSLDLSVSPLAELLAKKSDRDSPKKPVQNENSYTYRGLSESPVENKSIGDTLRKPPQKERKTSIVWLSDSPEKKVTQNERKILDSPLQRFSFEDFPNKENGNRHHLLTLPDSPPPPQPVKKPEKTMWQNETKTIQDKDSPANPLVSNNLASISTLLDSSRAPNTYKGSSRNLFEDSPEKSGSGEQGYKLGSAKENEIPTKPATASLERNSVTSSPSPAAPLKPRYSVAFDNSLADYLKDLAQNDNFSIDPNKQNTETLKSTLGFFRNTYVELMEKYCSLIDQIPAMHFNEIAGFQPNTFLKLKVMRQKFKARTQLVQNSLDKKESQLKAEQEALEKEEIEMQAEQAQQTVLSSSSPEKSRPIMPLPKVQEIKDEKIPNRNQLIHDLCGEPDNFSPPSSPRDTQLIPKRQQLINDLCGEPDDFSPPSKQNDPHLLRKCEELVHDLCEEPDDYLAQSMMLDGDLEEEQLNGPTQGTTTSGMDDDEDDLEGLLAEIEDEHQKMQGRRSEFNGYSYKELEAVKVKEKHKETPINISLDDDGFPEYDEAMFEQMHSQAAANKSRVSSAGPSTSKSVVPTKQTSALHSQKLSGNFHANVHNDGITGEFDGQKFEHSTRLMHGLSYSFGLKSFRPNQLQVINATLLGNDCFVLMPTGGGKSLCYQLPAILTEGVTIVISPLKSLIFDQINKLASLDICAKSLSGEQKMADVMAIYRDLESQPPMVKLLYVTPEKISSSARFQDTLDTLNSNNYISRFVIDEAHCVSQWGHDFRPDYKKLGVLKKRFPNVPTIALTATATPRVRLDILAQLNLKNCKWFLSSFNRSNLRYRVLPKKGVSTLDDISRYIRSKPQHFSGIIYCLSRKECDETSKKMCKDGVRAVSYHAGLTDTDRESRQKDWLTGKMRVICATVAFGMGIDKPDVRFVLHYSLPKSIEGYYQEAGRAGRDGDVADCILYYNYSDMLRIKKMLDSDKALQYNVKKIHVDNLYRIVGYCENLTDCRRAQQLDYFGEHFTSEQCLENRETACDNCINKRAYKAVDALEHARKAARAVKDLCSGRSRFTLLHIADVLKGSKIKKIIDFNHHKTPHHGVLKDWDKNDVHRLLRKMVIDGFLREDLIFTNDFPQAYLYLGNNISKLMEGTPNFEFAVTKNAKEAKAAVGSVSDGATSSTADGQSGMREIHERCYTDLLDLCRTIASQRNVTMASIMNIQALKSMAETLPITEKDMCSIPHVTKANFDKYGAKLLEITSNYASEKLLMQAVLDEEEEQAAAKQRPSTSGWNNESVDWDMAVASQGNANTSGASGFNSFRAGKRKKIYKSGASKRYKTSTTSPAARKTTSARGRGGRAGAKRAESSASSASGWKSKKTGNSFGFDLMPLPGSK

B1: 3' Tail (o1/o2) (mixed)
DNA 1: GACGCTGCCGAATTCTGGCTTGCTAGGACATCTTTGCCCACGTTGACCCG
DNA 2: ATGTCCTAGCAAGCCAGAATTCGGCAGCGTC
Turning to B1, the binding result in data set [1] was “binds”. Take GACGCTGCCGAATTCTGGCTTGCTAGGACATCTTTGCCCACGTTGACCCG (ssDNA) [o1]: the binding result in data set [2] is reported as “binds”.

B2: Forked (o1/o3) (mixed)
DNA 1: B1 DNA 1
DNA 2: CGAATAATCGTCATGTCCTAGCAAGCCAGAATTCGGCAGCGTC
Turning to B2, the binding result in data set [3] was “binds”.
